{"source": "the supplement of paper PMC12042874", "note": "± gives the uncertainty stated by the source."}
{"assay": "amyloid nucleation score (Sup35N fusion, yeast selection) (log enrichment); library NNK1; higher = more nucleation; inactive = no reads after selection", "summary_of_the_method": "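Yeast lacking psi expressed peptides of 20 random codons fused to Sup35N, received 100 μM copper sulfate for 24 hours, and were then grown for 7 days at 30°C on medium lacking adenine and uracil. Illumina sequencing of input and output plasmid inserts provided the reads. Nucleation scores are DiMSum log enrichments of output over input, centred on the mode of non-aggregating sequences. Any sequence with under 100 input reads was excluded.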"}
{"substance": "RWYVFWQSMGCVRSGVWVKG", "amyloid nucleation score": "0.195 ± 0.31"}
{"substance": "RWYWIF", "amyloid nucleation score": "4.6 ± 0.069"}
{"substance": "RYDPMLWINLYCFLITGG", "amyloid nucleation score": "0.334 ± 0.39"}
{"substance": "RYFSRAVACDHNES", "amyloid nucleation score": "-0.547 ± 0.84"}
{"substance": "RYHPMG", "amyloid nucleation score": "-0.074 ± 0.93"}
{"substance": "RYHSMYTNSNTRGFGSSLQL", "amyloid nucleation score": "inactive"}
{"substance": "RYHSY", "amyloid nucleation score": "-0.008 ± 0.77"}
{"substance": "RYICVTFISLGELPFYWWFT", "amyloid nucleation score": "-1.55 ± 0.83"}
{"substance": "RYILLVYVTCDRKVRAMKGV", "amyloid nucleation score": "0.883 ± 0.33"}
{"substance": "RYLLKLFRIVGFGVVFMMSK", "amyloid nucleation score": "-0.511 ± 0.34"}
{"substance": "RYLVVQLRMGLYLFAFKDPD", "amyloid nucleation score": "-0.686 ± 0.42"}
{"substance": "RYSSPSRGTAMFSLLYLYVY", "amyloid nucleation score": "0.694 ± 0.97"}
{"substance": "SAFVDWSAGSSNDFFFF", "amyloid nucleation score": "-0.577 ± 0.94"}
{"substance": "SAKNTGYMWMLIWLG", "amyloid nucleation score": "0.204 ± 0.79"}
{"substance": "SALGFFRAYQSIKRTLFRRR", "amyloid nucleation score": "-0.064 ± 0.56"}
{"substance": "SALIAMYYHSSGTMWIQYFC", "amyloid nucleation score": "0.145 ± 0.83"}
{"substance": "SALIILMHVV", "amyloid nucleation score": "-0.761 ± 1.2"}
{"substance": "SALNSSRGKFICSRRCHGEE", "amyloid nucleation score": "0.078 ± 0.23"}
{"substance": "SALWRNFSALRSNWK", "amyloid nucleation score": "-0.325 ± 0.34"}
{"substance": "SANCIWFFL", "amyloid nucleation score": "7.105 ± 0.071"}
{"substance": "SARQVSGLTWVM", "amyloid nucleation score": "2.52 ± 0.11"}
{"substance": "SARSWDLQMCFSCLYR", "amyloid nucleation score": "7.28 ± 0.08"}
{"substance": "SASAISTPGGCYDGYLFDSQ", "amyloid nucleation score": "-0.457 ± 0.61"}
{"substance": "SATNCRTGKDCRERGHTLGL", "amyloid nucleation score": "0.628 ± 0.33"}
{"substance": "SAVQFG", "amyloid nucleation score": "-0.539 ± 0.54"}
{"substance": "SAVVAVPVPYRDHQCPLPRV", "amyloid nucleation score": "1.13 ± 0.52"}
{"substance": "SAWWIGMMWCSSSSYLEIGG", "amyloid nucleation score": "-0.586 ± 0.39"}
{"substance": "SCFPLLRQFAGWLSWSRT", "amyloid nucleation score": "2.28 ± 0.18"}
{"substance": "SCFVSSSAIPWVIHSKFDLG", "amyloid nucleation score": "0.143 ± 0.55"}
{"substance": "SCGLYFAGVEVGGAVSLCKG", "amyloid nucleation score": "0 ± 0.48"}
{"substance": "SCHIKK", "amyloid nucleation score": "0.12 ± 0.39"}
{"substance": "SCIWIWICNHSMFGMETGLG", "amyloid nucleation score": "4.12 ± 0.1"}
{"substance": "SCLCYEDRSLHGYWNMSYAQ", "amyloid nucleation score": "0.938 ± 0.49"}
{"substance": "SCLMLGTGGETLRSRPPRKV", "amyloid nucleation score": "-1.45 ± 1.1"}
{"substance": "SCLWGMRLKL", "amyloid nucleation score": "-0.366 ± 0.8"}
{"substance": "SCMPHYEFMWRGAQAPWGLD", "amyloid nucleation score": "0.183 ± 0.5"}
{"substance": "SCPVLHAVPNYCAKALLSLR", "amyloid nucleation score": "-0.794 ± 0.64"}
{"substance": "SCQIGLPVLTYRTATVGHKS", "amyloid nucleation score": "0.06 ± 1"}
{"substance": "SCTASMASPNLEF", "amyloid nucleation score": "inactive"}
{"substance": "SCYVLVMYCYDMSFCDTLCE", "amyloid nucleation score": "0.024 ± 0.47"}
{"substance": "SDAITRVIRHMNPFCLTALL", "amyloid nucleation score": "-0.928 ± 0.95"}
{"substance": "SDDLFVNFSMSVWFLKVSLR", "amyloid nucleation score": "0.515 ± 0.34"}
{"substance": "SDDLRMHTHGGGYSGFWKGY", "amyloid nucleation score": "inactive"}
{"substance": "SDFAYCRCNLSVYRGMILTQ", "amyloid nucleation score": "0.064 ± 0.25"}
{"substance": "SDFQRE", "amyloid nucleation score": "3.91 ± 0.099"}
{"substance": "SDGASPFRWCFHSLRMVSAR", "amyloid nucleation score": "-0.647 ± 1.1"}
{"substance": "SDGQNRTTMTYFPSVGWVSS", "amyloid nucleation score": "-1.98 ± 2.7"}
{"substance": "SDLCSLLASQRFLRRSGYKL", "amyloid nucleation score": "inactive"}
{"substance": "SDLLCLLVKDIIYFFVYLHS", "amyloid nucleation score": "1.96 ± 0.53"}
{"substance": "SDVGLGNKKSWGVRAVCLDE", "amyloid nucleation score": "0.452 ± 1.2"}
{"substance": "SDYTLEGLIVFPCCVLLHVR", "amyloid nucleation score": "0.381 ± 0.39"}
{"substance": "SECSINRWF", "amyloid nucleation score": "0.965 ± 0.76"}
{"substance": "SEDVLIPAGRCPL", "amyloid nucleation score": "0.845 ± 0.7"}
{"substance": "SEGWHGPGARVCLVFKNSRV", "amyloid nucleation score": "0.286 ± 0.61"}
{"substance": "SEICLLVSSKSGHDAQSTIS", "amyloid nucleation score": "-0.011 ± 1.2"}
{"substance": "SELEIA", "amyloid nucleation score": "inactive"}
{"substance": "SELPVTGWLLIFLGELTWS", "amyloid nucleation score": "-0.88 ± 1.3"}
{"substance": "SELYLFSSRGIYQSTRLRLR", "amyloid nucleation score": "-0.147 ± 0.81"}
{"substance": "SEMLSLKIGQGTVTPFNFWM", "amyloid nucleation score": "-0.09 ± 1.2"}
{"substance": "SEPEKG", "amyloid nucleation score": "-0.463 ± 0.43"}
{"substance": "SESYEFVVHLHMESLRKLN", "amyloid nucleation score": "-0.245 ± 0.71"}
{"substance": "SETYSSVAWRTMVVAAELVD", "amyloid nucleation score": "0.822 ± 0.95"}
{"substance": "SEYLASMAVTRFLGIGWMNS", "amyloid nucleation score": "0.548 ± 0.57"}
{"substance": "SFCLAVGPNLMTIGICMLQQ", "amyloid nucleation score": "inactive"}
{"substance": "SFCVFLMDMSRIGPETLSEW", "amyloid nucleation score": "4.95 ± 0.076"}
{"substance": "SFDRLMCRAM", "amyloid nucleation score": "0.688 ± 0.88"}
{"substance": "SFEKKSVPNSANLGATVLPN", "amyloid nucleation score": "0.196 ± 0.38"}
{"substance": "SFILCGISRSYQMLLMTRYL", "amyloid nucleation score": "6.09 ± 0.068"}
{"substance": "SFLDMSTKVEYESIWTSTVA", "amyloid nucleation score": "0.568 ± 0.45"}
{"substance": "SFNWPGFPDCFGPFRAVFIS", "amyloid nucleation score": "-0.61 ± 1.1"}
{"substance": "SFNYRIAFFSRYRPYMGSLG", "amyloid nucleation score": "1.76 ± 0.37"}
{"substance": "SFRCDVD", "amyloid nucleation score": "-0.217 ± 0.55"}
{"substance": "SFRFNGGTFVHSSKTKP", "amyloid nucleation score": "0.441 ± 0.3"}
{"substance": "SFRIVLLPPF", "amyloid nucleation score": "2.64 ± 0.26"}
{"substance": "SFSVSLTTYVYYFICHYAGI", "amyloid nucleation score": "1.96 ± 0.13"}
{"substance": "SFSYLIFTTVLLVWW", "amyloid nucleation score": "0.549 ± 0.34"}
{"substance": "SFTWFVTAANYKW", "amyloid nucleation score": "1.8 ± 0.35"}
{"substance": "SFVLGYSFLRKSCWFNVVTL", "amyloid nucleation score": "inactive"}
{"substance": "SFVWLR", "amyloid nucleation score": "2.67 ± 0.37"}
{"substance": "SFWWSDATMFEFVKGSRSGK", "amyloid nucleation score": "inactive"}
{"substance": "SFYQAYYVACCKYNVEY", "amyloid nucleation score": "5.96 ± 0.063"}
{"substance": "SGCLLSDGEF", "amyloid nucleation score": "0.046 ± 0.32"}
{"substance": "SGCVQDCSLKRIFLMPDKAL", "amyloid nucleation score": "-1.03 ± 0.55"}
{"substance": "SGEVLRPFAVLC", "amyloid nucleation score": "-0.061 ± 0.3"}
{"substance": "SGFIEVYVTIRFEFLYFHTP", "amyloid nucleation score": "0.131 ± 0.18"}
{"substance": "SGGCMDSKLSAVG", "amyloid nucleation score": "0.894 ± 0.51"}
